Measurements as given in article PMC6888877, “Deconstructing and repurposing the light-regulated interplay between Arabidopsis phytochromes and interacting factors” (Communications Biology, 2019).

What was measured:
[1] = target: T1, P6.A-EYFP (Arabidopsis thaliana); experiment: cell-based or functional assay
T1 chain: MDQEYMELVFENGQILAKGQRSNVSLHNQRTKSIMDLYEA

[2] = target: T2, AtPIF6 (1-100)-EYFP, P6.100 (Arabidopsis thaliana, UniProt Q8L5W7 1-100); experiment: cell-based or functional assay
T2 sequence (looked up): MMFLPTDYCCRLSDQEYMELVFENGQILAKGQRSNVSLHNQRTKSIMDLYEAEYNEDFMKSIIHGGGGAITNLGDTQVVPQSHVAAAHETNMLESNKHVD

[3] = target: T3, AtPIF3 (1-100)-EYFP, P3.100 (Arabidopsis thaliana, UniProt O80536 1-100); experiment: cell-based or functional assay
T3 sequence (looked up): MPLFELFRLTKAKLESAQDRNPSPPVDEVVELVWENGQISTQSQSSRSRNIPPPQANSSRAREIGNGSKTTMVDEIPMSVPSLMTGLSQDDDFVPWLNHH

[4] = target: T4, P6.AA-EYFP (Arabidopsis thaliana); experiment: SEC; 50 µM AtPhyB PCM + 10 µM AtPIF-EYFP (5:1), illuminated with red light (650 nm, 2 min; results say 640 nm), Pfr state; Superdex 200 Increase 10/300 GL; 67 mM sodium phosphate pH 8.0, 200 mM NaCl; conditions: both partners purified
T4 chain: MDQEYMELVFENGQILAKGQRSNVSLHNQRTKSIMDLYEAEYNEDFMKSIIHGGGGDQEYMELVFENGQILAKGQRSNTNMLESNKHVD

[5] = target: T5, P3 (AtPIF3 1-100 without the N-terminal region preceding APB.A)-EYFP (Arabidopsis thaliana); experiment: as above; conditions: both partners purified
T5 chain: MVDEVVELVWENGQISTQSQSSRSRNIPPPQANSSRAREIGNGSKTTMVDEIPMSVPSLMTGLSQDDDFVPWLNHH

[6] = target: T6, P6.fus-EYFP (Arabidopsis thaliana); experiment: as above; conditions: both partners purified
T6 chain: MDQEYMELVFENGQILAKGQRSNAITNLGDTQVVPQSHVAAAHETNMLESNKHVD

normalized SEAP reporter expression in CHO-K1 cells, split transcription factor (AtPhyB PCM-VP16 + E-protein-AtPIF variant), red light against darkness [1]: 43 fold | normalized SEAP reporter expression in CHO-K1 cells, split transcription factor (AtPhyB PCM-VP16 + E-protein-AtPIF variant), red light against darkness [2]: 4 fold | normalized SEAP reporter expression in CHO-K1 cells, split transcription factor (AtPhyB PCM-VP16 + E-protein-AtPIF variant), red light against darkness [3]: 10 fold | stoichiometry N [4]: 1 | stoichiometry N [5]: 1 | stoichiometry N [6]: 1
B1: Arabidopsis thaliana phytochrome B photosensory core module (AtPhyB PCM) (domain or fragment, UniProt P14713 1-651, looked up)
chain: MVSGVGGSGGGRGGGRGGEEEPSSSHTPNNRRGGEQAQSSGTKSLRPRSNTESMSKAIQQYTVDARLHAVFEQSGESGKSFDYSQSLKTTTYGSSVPEQQITAYLSRIQRGGYIQPFGCMIAVDESSFRIIGYSENAREMLGIMPQSVPTLEKPEILAMGTDVRSLFTSSSSILLERAFVAREITLLNPVWIHSKNTGKPFYAILHRIDVGVVIDLEPARTEDPALSIAGAVQSQKLAVRAISQLQALPGGDIKLLCDTVVESVRDLTGYDRVMVYKFHEDEHGEVVAESKRDDLEPYIGLHYPATDIPQASRFLFKQNRVRMIVDCNATPVLVVQDDRLTQSMCLVGSTLRAPHGCHSQYMANMGSIASLAMAVIINGNEDDGSNVASGRSSMRLWGLVVCHHTSSRCIPFPLRYACEFLMQAFGLQLNMELQLALQMSEKRVLRTQTLLCDMLLRDSPAGIVTQSPSIMDLVKCDGAAFLYHGKYYPLGVAPSEVQIKDVVEWLLANHADSTGLSTDSLGDAGYPGAAALGDAVCGMAVAYITKRDFLFWFRSHTAKEIKWGGAKHHPEDKDDGQRMHPRSSFQAFLEVVKSRSQPWETAEMDAIHSLQLILRDSFKESEAAMNSKVVDGVVQPCRDMAGEQGIDELGA
modifications: covalently incorporated bilin chromophore (PCB; co-expressed Synechocystis sp. heme oxygenase 1 and pcyA)
notes: A. thaliana phytochrome B, photosensory core module (PAS-GAF-PHY with N-terminal extension), residues 1-651; Pr state (far-red light or dark) and Pfr state (red light; Pfr/Pr about 0.56/0.44) are told apart by the assays; In the cell experiments other constructs were used (PCM-VP16; PCM 1-650 with CAAX); source: E. coli BL21(DE3), plasmid pDG282, purified (Ni-NTA IMAC, anion exchange)
